Source: US5834290

T1: soybean trypsin inhibitor (SBTI), P01070
T1 chain: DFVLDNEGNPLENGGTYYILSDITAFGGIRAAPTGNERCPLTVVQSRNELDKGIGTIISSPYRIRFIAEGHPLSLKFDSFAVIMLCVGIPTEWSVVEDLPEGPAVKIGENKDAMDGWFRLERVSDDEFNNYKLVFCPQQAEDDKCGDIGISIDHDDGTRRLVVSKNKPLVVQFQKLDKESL


Experiments:
[1] = target: T1, soybean trypsin inhibitor (SBTI), P01070; test: affinity chromatography of KCl-extracts of plantar corneocytes on covalently linked soybean trypsin inhibitor
[2] = target: desmoglein I (DG I) (Homo sapiens (Human)) (UniProt Q02413)
desmoglein I (DG I) (Homo sapiens (Human)), sequence (Q02413 50-1049 limits assumed): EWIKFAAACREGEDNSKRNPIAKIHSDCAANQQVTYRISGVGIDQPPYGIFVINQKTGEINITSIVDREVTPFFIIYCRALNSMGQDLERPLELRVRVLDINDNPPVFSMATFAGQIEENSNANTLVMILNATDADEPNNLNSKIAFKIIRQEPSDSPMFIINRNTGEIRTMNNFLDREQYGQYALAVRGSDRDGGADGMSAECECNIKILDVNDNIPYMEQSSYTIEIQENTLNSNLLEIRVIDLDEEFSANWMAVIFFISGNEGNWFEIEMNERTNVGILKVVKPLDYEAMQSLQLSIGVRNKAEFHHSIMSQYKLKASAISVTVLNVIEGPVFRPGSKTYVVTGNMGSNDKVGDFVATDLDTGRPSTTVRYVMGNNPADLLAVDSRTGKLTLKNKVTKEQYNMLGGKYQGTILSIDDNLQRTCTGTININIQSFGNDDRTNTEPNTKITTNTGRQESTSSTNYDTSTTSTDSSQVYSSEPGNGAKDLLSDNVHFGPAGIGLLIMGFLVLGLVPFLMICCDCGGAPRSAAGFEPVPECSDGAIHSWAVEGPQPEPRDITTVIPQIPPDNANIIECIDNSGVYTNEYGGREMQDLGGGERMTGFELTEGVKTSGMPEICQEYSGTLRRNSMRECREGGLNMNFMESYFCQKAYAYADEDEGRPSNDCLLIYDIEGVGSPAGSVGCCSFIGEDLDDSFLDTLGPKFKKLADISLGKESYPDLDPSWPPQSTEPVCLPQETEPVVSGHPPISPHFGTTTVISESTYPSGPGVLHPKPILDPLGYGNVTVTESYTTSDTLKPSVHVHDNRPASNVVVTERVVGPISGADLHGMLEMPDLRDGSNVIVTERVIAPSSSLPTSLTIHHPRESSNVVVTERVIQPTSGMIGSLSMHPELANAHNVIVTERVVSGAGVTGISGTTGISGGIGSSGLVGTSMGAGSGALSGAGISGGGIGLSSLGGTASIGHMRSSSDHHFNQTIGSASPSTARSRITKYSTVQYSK

Binder	percent of the S-2586 hydrolyzing activity bound to the gel [1]	levels of the desmosome marker protein desmoglein I after 24 hours at 37° C., DG I (arbitrary units/mg squames) (arbitrary units/mg squames) [2]
stratum corneum chymotryptic enzyme (SCCE), native, from human plantar stratum corneum (protein) IIDGAPCARGSHPWQVALLSGNQLHCGGVLVNERWVLTAAHCKMNEYTVHLGSDTLGDRRAQRIKASKSFRHPGYSTQTHVNDLMLVKLNSQARLSSMVKKVRLPSRCEPPGTTCTVSGWGTTTSPDVTFPSDLMCVDVKLISPQDCTKVYKDLLENSMLCAGIPDSKKNACNGDSGGPLVCRGTLQGLVSWGTFPCGQPNDPGVYTQVCKFTKWINDTMKKHR	Approximately 90% of the S-2586 hydrolyzing activity was bound to the gel	–
recombinant SCCE, active (trypsin-activated recombinant SCCE of Example 10; rSCCE of Examples 12 and 13) (enzyme) IIDGAPCARGSHPWQVALLSGNQLHCGGVLVNERWVLTAAHCKMNEYTVHLGSDTLGDRRAQRIKASKSFRHPGYSTQTHVNDLMLVKLNSQARLSSMVKKVRLPSRCEPPGTTCTVSGWGTTTSPDVTFPSDLMCVDVKLISPQDCTKVYKDLLENSMLCAGIPDSKKNACNGDSGGPLVCRGTLQGLVSWGTFPCGQPNDPGVYTQVCKFTKWINDTMKKHR	–	4060
